Test results: patent publication US20260201030A1, “ANTIBODY, ANTIBODY-DRUG CONJUGATE THEREOF AND USE THEREOF” (EVOPOINT BIOSCIENCES CO., LTD., priority 2021, published 2026)
Numbering of substitutions follows the chain as printed.

B1: 25C7A5-HZ1: humanized anti-Claudin18.2 antibody, VH SEQ ID NO: 1, VL SEQ ID NO: 2, human IgG1/Kappa constant regions (antibody, V domains shown)
VH: QVQLVQSGAEVKKPGSSVKVSCKASGYTFTNYWLHWVRQAPGQGLEWMGMMHPISGSSNYAQKFQGRATLTVDKSTSTAYMELSSLRSEDTAVYYCARGLLSAMDYWGQGTLVTVSS
VL: EIVLTQSPATLSLSPGERATLSCKASENVKTYVSWYQQKPGQSPRLLIYEASNRYTGVPARFSGSGSATDFTLTISSLEPEDFAVYFCGQTYSFPPTFGQGTKVEIK
modifications: human IgG1/kappa constant regions
B2: 25C7A5-HZ2: humanized anti-Claudin18.2 antibody, VH SEQ ID NO: 3, VL SEQ ID NO: 2, human IgG1/Kappa constant regions (antibody, V domains shown)
VH: B1 VH with Q6E
VL: B1 VL
modifications: human IgG1/kappa constant regions

Assays:
Format in all cases: binding
human Claudin18.2 [1] = biological target: T1, human Claudin18.2 (Homo sapiens, UniProt P56856); assay: Cell-based ELISA affinity of humanized antibodies on HEK293T-Claudin18.2 (human) cells; conditions: HEK293T-Claudin18.2 cells
T1 construct: expressed in transfected cells
Method: The affinity of the anti-human Claudin18.2 murine monoclonal antibodies was evaluated by cell-based ELISA. The experimental procedures were as follows: The day before the experiment, HEK293T-Claudin18.2 (human) cells were plated in a 96-well plate at 5×10^4 cells/well. On the day of the experiment, the supernatant was removed, the cells in each well were washed once with 300 μL of PBS, and 100 μL of 4% paraformaldehyde was added to each well for fixation at room temperature for 20 min. Paraformaldehyde was then removed, and the cells in each well were washed twice with 300 μL of PBS. 100 μL of 2% BSA (in PBS) was added to each well, and the mixture was blocked at 37° C. for 2 h. After removing the blocking solution, each antibody subjected to gradient dilution (diluted with 2% BSA (in PBS), starting at […], in a 3-fold gradient, for a total of 11 concentration points) was added to the plate at 100 μL/well, and the mixture was incubated at 37° C. for 2 h. The supernatant was removed, and the cells in each well were washed three times with 300 μL of PBST. 100 μL of an anti-mouse IgG HRP secondary antibody (Jackson, cat #115-035-003) in 2% BSA was added to each well, and the mixture was incubated at 37° C. for 1 h. The secondary antibody was then removed, and the cells in each well were washed five times with 300 μL of PBST, followed by the addition of 100 μL of a TMB substrate (Huzhou InnoReagents Co., Ltd.) per well for color development for 5-20 min. The reaction was stopped by adding 50 μL of 2 N HCl to each well, and OD450 nm values were read on a microplate reader (manufacturer: MD, model: SpectraMax). The values obtained were plotted by GraphPad Prism to calculate the EC50 value.
The affinity of the anti-human Claudin18.2 humanized monoclonal antibodies was determined by cell-based ELISA. The cell-based ELISA was conducted as described in Example I-3.

human Claudin18.2 [2] = biological target: T1, human Claudin18.2; assay: Cell-based ELISA affinity on NUGC4-Claudin18.2 (human) cells
human Claudin18.2 [3] = biological target: T1, human Claudin18.2; assay: Cell-based FACS affinity on NUGC4-Claudin18.2 (human) cells
Method: (§1) The affinity of the anti-human Claudin18.2 humanized antibodies was detected by flow cytometry. The experimental procedures were as follows: The adherent cultured HEK293T-Claudin18.2 (human), NUGC4-Claudin18.2 (human) and NUGC4 cells were digested, collected by centrifugation, and washed three times with pre-cooled PBS. The cells were resuspended in 1% BSA (in PBS) and added to a 96-well pointed bottom plate at 3×10^5 cells/well, with a volume of 50 μL per well. Each test antibody was diluted with 1% BSA (in PBS) (starting at 100 μg/mL, diluted in a 3-fold gradient, for 10 concentration points). The test antibody subjected to gradient dilution was added to the cells at 50 μL/well, and the mixture was well mixed and incubated at 4° C. for 1 h. The cells were collected by centrifugation, washed three times with pre-cooled PBS, and resuspended in 50 μL of 1% BSA (in PBS). 1 μL of a fluorescent secondary antibody (Biolegend-410712) was added to each well, and the mixture was well mixed and incubated at 4° C. for 0.5 h. The cells were collected by centrifugation, washed three times with pre-cooled PBS, resuspended in 200 μL of PBS, and assayed on a machine.

human Claudin18.2 [4] = biological target: T1, human Claudin18.2; assay: Cell-based FACS affinity on NUGC4 cells
Method: as §1

mouse Claudin18.2 = biological target: T2, mouse Claudin18.2 (Mus musculus, UniProt P56857); assay: FACS species affinity on HEK293T-Claudin18.2 (mouse) cells; conditions: cell-based FACS
T2 construct: expressed in transfected cells
T2 sequence (P56857 1-264 isoform P56857-3): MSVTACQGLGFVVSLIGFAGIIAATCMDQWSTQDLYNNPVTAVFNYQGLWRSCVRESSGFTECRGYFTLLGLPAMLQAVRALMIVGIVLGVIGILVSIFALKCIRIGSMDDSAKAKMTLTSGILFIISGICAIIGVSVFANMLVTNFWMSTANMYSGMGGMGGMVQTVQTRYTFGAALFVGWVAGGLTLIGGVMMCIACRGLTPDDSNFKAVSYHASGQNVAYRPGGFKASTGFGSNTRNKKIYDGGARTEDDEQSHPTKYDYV
Method: (§2) The affinity of the anti-human Claudin18.2 humanized monoclonal antibodies for Claudin18.2 of different species was determined by flow cytometry (FACS). The experimental procedures were as follows: HEK293T-Claudin18.2 (cynomolgus monkey) cells, HEK293T-Claudin18.2 (mouse) cells and HEK293T-Claudin18.2 (rat) cells were digested, collected by centrifugation, washed three times with pre-cooled PBS, resuspended in 1% BSA (in PBS), and added to a 96-well pointed bottom plate at 3×10^5 cells/well. Each antibody subjected to gradient dilution was added, and the mixture was incubated at 4° C. for 1 h. The cells were washed three times with pre-cooled PBS, and then 1 μL of a fluorescent secondary antibody (APC: Biolegend-410712) was added to each well. The mixture was incubated at 4° C. for 0.5 h, and the cells were washed three times with pre-cooled PBS, then resuspended, and assayed on a flow cytometer.

rat Claudin18.2 = biological target: T3, rat Claudin18.2 (Rattus norvegicus, UniProt Q5I0E5); assay: FACS species affinity on HEK293T-Claudin18.2 (rat) cells; conditions: cell-based FACS
T3 construct: expressed in transfected cells
T3 sequence (Q5I0E5 1-261 isoform Q5I0E5-2): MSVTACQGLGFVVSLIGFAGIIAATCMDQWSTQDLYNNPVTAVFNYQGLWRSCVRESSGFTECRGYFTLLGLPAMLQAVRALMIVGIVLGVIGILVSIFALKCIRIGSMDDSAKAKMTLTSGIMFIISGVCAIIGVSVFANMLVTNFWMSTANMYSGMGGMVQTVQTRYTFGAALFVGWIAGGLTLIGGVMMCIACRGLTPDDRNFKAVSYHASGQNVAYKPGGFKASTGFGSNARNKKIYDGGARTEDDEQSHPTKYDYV
Method: as §2

| Molecule | Affinity detected by cell-based ELISA (EC50, ng/mL) HEK293T-Claudin18.2 (human Claudin18.2 [1]) | NUGC4-Claudin18.2 EC50 (human Claudin18.2 [2]) [µg/mL] | NUGC4-Claudin18.2 Maximum signal value (human Claudin18.2 [2]; OD450) | NUCG4- Claudin18.2 EC50 (human Claudin18.2 [3]) [µg/mL] | NUCG4- Claudin18.2 Maximum signal value (human Claudin18.2 [3]) | binding to NUGC4 (in words) (human Claudin18.2 [4]) | HEK293T-Claudin18.2 (mouse) EC50 (mouse Claudin18.2) [µg/mL] | HEK293T-Claudin18.2 (rat) EC50 (rat Claudin18.2) [µg/mL] |
| --- | --- | --- | --- | --- | --- | --- | --- | --- |
| B1 | 11.15 ng/mL | 0.1076 | 1.284 | 3.192 | 871132 | significant binding | 0.9407 | 1.672 |
| B2 | 11.17 ± 2.19(N = 2) ng/mL |  |  |  |  |  |  |  |
